Results as given in PMC3960972 (The Biochemical journal, 2013).

What was measured:
N[C@@H](CS)C(=O)O = assay: HPLC-based steady-state kinetics; assay type: biochemical, Staphylococcus aureus; conditions: […] Mn2+; fosfomycin ([…])
SaFosB = SaFosB (Staphylococcus aureus, UniProt Q5HDM4); assay: HPLC-based enzyme inhibition kinetics, purified enzyme; assay type: biochemical
SaFosB, sequence (Q5HDM4 whole entry): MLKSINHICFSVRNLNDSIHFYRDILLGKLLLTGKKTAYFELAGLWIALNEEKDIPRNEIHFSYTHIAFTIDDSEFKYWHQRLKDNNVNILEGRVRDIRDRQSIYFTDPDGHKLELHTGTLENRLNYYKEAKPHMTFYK

| Compound | Km (N[C@@H](CS)C(=O)O) [mM] | kcat (N[C@@H](CS)C(=O)O) [s⁻¹] | kcat/Km (N[C@@H](CS)C(=O)O) [M⁻¹ s⁻¹] | Ki (SaFosB) [mM] |
| --- | --- | --- | --- | --- |
| SaFosB (Staphylococcus aureus subsp. aureus COL) | 13 | 2.3 ± 0.2 | 175 ± 44 |  |
| N[C@@H](CO)C(=O)N[C@H]1[C@@H](O[C@@H](CC(=O)O)C(=O)O)O[C@H](CO)[C@@H](O)[C@@H]1O [BOH] |  |  |  | 3.9 |
